Test results from article PMC5627596.

Legend:
[1] = target: heterodimeric Fcab JanusCT6 (one VEGF-binding CT6 chain, one Fc-wt chain) (human); assay: ITC; 200 µM VEGF titrated into 40 µM Janus448 or JanusCT6 in the cell; PBS (pH 7.4), 25°C; one-set-of-sites model
[2] = target: heterodimeric Fcab Janus448 (one VEGF-binding 448 chain, one Fc-wt chain) (human); assay: as above

Kd [1]: 4 nM
dH [1]: -34 kcal/mol
stoichiometry N [1]: 0.5
Kd [2]: 26 nM
dH [2]: -25 kcal/mol
stoichiometry N [2]: 0.5
Substance: vascular endothelial growth factor (VEGF-A), truncated version, residues 14-108 (domain or fragment)
